{
  "source": "patent US12630600B2",
  "about": "(MEDIMMUNE LIMITED, priority 2022, dated 2026)",
  "binders": {"B1": {"name": "Peptide 151 (peptide)", "peptide": "H[Aib]QGTFTSDVSK[αMeF]LDSK([AEEA-AEEA-γGlu-C20 diacid])RAQDFVRWLL[Aib]TE-OH", "modifications": "N-terminus assumed", "SMILES": "CC(C)C[C@H](NC(=O)[C@H](Cc1c[nH]c2ccccc12)NC(=O)[C@H](CCCNC(=N)N)NC(=O)[C@@H](NC(=O)[C@H](Cc1ccccc1)NC(=O)[C@H](CC(=O)O)NC(=O)[C@H](CCC(N)=O)NC(=O)[C@H](C)NC(=O)[C@H](CCCNC(=N)N)NC(=O)[C@H](CCCCNC(=O)COCCOCCNC(=O)COCCOCCNC(=O)CC[C@H](NC(=O)CCCCCCCCCCCCCCCCCCC(=O)O)C(=O)O)NC(=O)[C@H](CO)NC(=O)[C@H](CC(=O)O)NC(=O)[C@H](CC(C)C)NC(=O)[C@](C)(Cc1ccccc1)NC(=O)[C@H](CCCCN)NC(=O)[C@H](CO)NC(=O)[C@@H](NC(=O)[C@H](CC(=O)O)NC(=O)[C@H](CO)NC(=O)[C@@H](NC(=O)[C@H](Cc1ccccc1)NC(=O)[C@@H](NC(=O)CNC(=O)[C@H](CCC(N)=O)NC(=O)C(C)(C)NC(=O)[C@@H](N)Cc1c[nH]cn1)[C@@H](C)O)[C@@H](C)O)C(C)C)C(C)C)C(=O)N[C@@H](CC(C)C)C(=O)NC(C)(C)C(=O)N[C@H](C(=O)N[C@@H](CCC(=O)O)C(=O)O)[C@@H](C)O"}, "B2": {"name": "Peptide 147 (peptide)", "peptide": "H[Aib]QGTFTSDVSK[αMeF]LDSK([AEEA-AEEA-γGlu-C18 diacid])RAQDFVRWLEA[Aib]G-OH", "modifications": "N-terminus assumed", "SMILES": "CC(C)C[C@H](NC(=O)[C@H](Cc1c[nH]c2ccccc12)NC(=O)[C@H](CCCNC(=N)N)NC(=O)[C@@H](NC(=O)[C@H](Cc1ccccc1)NC(=O)[C@H](CC(=O)O)NC(=O)[C@H](CCC(N)=O)NC(=O)[C@H](C)NC(=O)[C@H](CCCNC(=N)N)NC(=O)[C@H](CCCCNC(=O)COCCOCCNC(=O)COCCOCCNC(=O)CC[C@H](NC(=O)CCCCCCCCCCCCCCCCC(=O)O)C(=O)O)NC(=O)[C@H](CO)NC(=O)[C@H](CC(=O)O)NC(=O)[C@H](CC(C)C)NC(=O)[C@](C)(Cc1ccccc1)NC(=O)[C@H](CCCCN)NC(=O)[C@H](CO)NC(=O)[C@@H](NC(=O)[C@H](CC(=O)O)NC(=O)[C@H](CO)NC(=O)[C@@H](NC(=O)[C@H](Cc1ccccc1)NC(=O)[C@@H](NC(=O)CNC(=O)[C@H](CCC(N)=O)NC(=O)C(C)(C)NC(=O)[C@@H](N)Cc1c[nH]cn1)[C@@H](C)O)[C@@H](C)O)C(C)C)C(C)C)C(=O)N[C@@H](CCC(=O)O)C(=O)N[C@@H](C)C(=O)NC(C)(C)C(=O)NCC(=O)O"}, "B3": {"name": "Peptide 153 (peptide)", "peptide": "H[Aib]QGTFTSDVSK[αMeF]LDSK([AEEA-AEEA-γGlu-C20 diacid])RAQDFVRWLL[Aib]E-OH", "modifications": "N-terminus assumed", "SMILES": "CC(C)C[C@H](NC(=O)[C@H](Cc1c[nH]c2ccccc12)NC(=O)[C@H](CCCNC(=N)N)NC(=O)[C@@H](NC(=O)[C@H](Cc1ccccc1)NC(=O)[C@H](CC(=O)O)NC(=O)[C@H](CCC(N)=O)NC(=O)[C@H](C)NC(=O)[C@H](CCCNC(=N)N)NC(=O)[C@H](CCCCNC(=O)COCCOCCNC(=O)COCCOCCNC(=O)CC[C@H](NC(=O)CCCCCCCCCCCCCCCCCCC(=O)O)C(=O)O)NC(=O)[C@H](CO)NC(=O)[C@H](CC(=O)O)NC(=O)[C@H](CC(C)C)NC(=O)[C@](C)(Cc1ccccc1)NC(=O)[C@H](CCCCN)NC(=O)[C@H](CO)NC(=O)[C@@H](NC(=O)[C@H](CC(=O)O)NC(=O)[C@H](CO)NC(=O)[C@@H](NC(=O)[C@H](Cc1ccccc1)NC(=O)[C@@H](NC(=O)CNC(=O)[C@H](CCC(N)=O)NC(=O)C(C)(C)NC(=O)[C@@H](N)Cc1c[nH]cn1)[C@@H](C)O)[C@@H](C)O)C(C)C)C(C)C)C(=O)N[C@@H](CC(C)C)C(=O)NC(C)(C)C(=O)N[C@@H](CCC(=O)O)C(=O)O"}, "B4": {"name": "Peptide 148 (peptide)", "peptide": "H[Aib]QGTFTSDVSK[αMeF]LDSK([AEEA-AEEA-γGlu-C18 diacid])RAQDFVRWIAE[Aib]G-OH", "modifications": "N-terminus assumed", "SMILES": "CC[C@H](C)[C@H](NC(=O)[C@H](Cc1c[nH]c2ccccc12)NC(=O)[C@H](CCCNC(=N)N)NC(=O)[C@@H](NC(=O)[C@H](Cc1ccccc1)NC(=O)[C@H](CC(=O)O)NC(=O)[C@H](CCC(N)=O)NC(=O)[C@H](C)NC(=O)[C@H](CCCNC(=N)N)NC(=O)[C@H](CCCCNC(=O)COCCOCCNC(=O)COCCOCCNC(=O)CC[C@H](NC(=O)CCCCCCCCCCCCCCCCC(=O)O)C(=O)O)NC(=O)[C@H](CO)NC(=O)[C@H](CC(=O)O)NC(=O)[C@H](CC(C)C)NC(=O)[C@](C)(Cc1ccccc1)NC(=O)[C@H](CCCCN)NC(=O)[C@H](CO)NC(=O)[C@@H](NC(=O)[C@H](CC(=O)O)NC(=O)[C@H](CO)NC(=O)[C@@H](NC(=O)[C@H](Cc1ccccc1)NC(=O)[C@@H](NC(=O)CNC(=O)[C@H](CCC(N)=O)NC(=O)C(C)(C)NC(=O)[C@@H](N)Cc1c[nH]cn1)[C@@H](C)O)[C@@H](C)O)C(C)C)C(C)C)C(=O)N[C@@H](C)C(=O)N[C@@H](CCC(=O)O)C(=O)NC(C)(C)C(=O)NCC(=O)O"}, "B5": {"name": "Peptide 152 (peptide)", "peptide": "H[Aib]QGTFTSDVSK[αMeF]LDSK([AEEA-AEEA-γGlu-C18 diacid])RAQDFVRWLL[Aib]E-OH", "modifications": "N-terminus assumed", "SMILES": "CC(C)C[C@H](NC(=O)[C@H](Cc1c[nH]c2ccccc12)NC(=O)[C@H](CCCNC(=N)N)NC(=O)[C@@H](NC(=O)[C@H](Cc1ccccc1)NC(=O)[C@H](CC(=O)O)NC(=O)[C@H](CCC(N)=O)NC(=O)[C@H](C)NC(=O)[C@H](CCCNC(=N)N)NC(=O)[C@H](CCCCNC(=O)COCCOCCNC(=O)COCCOCCNC(=O)CC[C@H](NC(=O)CCCCCCCCCCCCCCCCC(=O)O)C(=O)O)NC(=O)[C@H](CO)NC(=O)[C@H](CC(=O)O)NC(=O)[C@H](CC(C)C)NC(=O)[C@](C)(Cc1ccccc1)NC(=O)[C@H](CCCCN)NC(=O)[C@H](CO)NC(=O)[C@@H](NC(=O)[C@H](CC(=O)O)NC(=O)[C@H](CO)NC(=O)[C@@H](NC(=O)[C@H](Cc1ccccc1)NC(=O)[C@@H](NC(=O)CNC(=O)[C@H](CCC(N)=O)NC(=O)C(C)(C)NC(=O)[C@@H](N)Cc1c[nH]cn1)[C@@H](C)O)[C@@H](C)O)C(C)C)C(C)C)C(=O)N[C@@H](CC(C)C)C(=O)NC(C)(C)C(=O)N[C@@H](CCC(=O)O)C(=O)O"}, "B6": {"name": "Peptide 149 (peptide)", "peptide": "H[Aib]QGTFTSDVSK[αMeF]LDSK([AEEA-AEEA-γGlu-C18 diacid])RAQDFVRWVVE[Aib]G-OH", "modifications": "N-terminus assumed", "SMILES": "CC(C)C[C@H](NC(=O)[C@](C)(Cc1ccccc1)NC(=O)[C@H](CCCCN)NC(=O)[C@H](CO)NC(=O)[C@@H](NC(=O)[C@H](CC(=O)O)NC(=O)[C@H](CO)NC(=O)[C@@H](NC(=O)[C@H](Cc1ccccc1)NC(=O)[C@@H](NC(=O)CNC(=O)[C@H](CCC(N)=O)NC(=O)C(C)(C)NC(=O)[C@@H](N)Cc1c[nH]cn1)[C@@H](C)O)[C@@H](C)O)C(C)C)C(=O)N[C@@H](CC(=O)O)C(=O)N[C@@H](CO)C(=O)N[C@@H](CCCCNC(=O)COCCOCCNC(=O)COCCOCCNC(=O)CC[C@H](NC(=O)CCCCCCCCCCCCCCCCC(=O)O)C(=O)O)C(=O)N[C@@H](CCCNC(=N)N)C(=O)N[C@@H](C)C(=O)N[C@@H](CCC(N)=O)C(=O)N[C@@H](CC(=O)O)C(=O)N[C@@H](Cc1ccccc1)C(=O)N[C@H](C(=O)N[C@@H](CCCNC(=N)N)C(=O)N[C@@H](Cc1c[nH]c2ccccc12)C(=O)N[C@H](C(=O)N[C@H](C(=O)N[C@@H](CCC(=O)O)C(=O)NC(C)(C)C(=O)NCC(=O)O)C(C)C)C(C)C)C(C)C"}, "B7": {"name": "Peptide 518 (peptide)", "peptide": "H[Aib]QGTFTSDVSK[αMeF]LDTK([AEEA-AEEA-γGlu-γGlu-C18 diacid])RARDFVQWLLE[Aib]G-OH", "modifications": "N-terminus assumed", "SMILES": "CC(C)C[C@H](NC(=O)[C@H](Cc1c[nH]c2ccccc12)NC(=O)[C@H](CCC(N)=O)NC(=O)[C@@H](NC(=O)[C@H](Cc1ccccc1)NC(=O)[C@H](CC(=O)O)NC(=O)[C@H](CCCNC(=N)N)NC(=O)[C@H](C)NC(=O)[C@H](CCCNC(=N)N)NC(=O)[C@H](CCCCNC(=O)COCCOCCNC(=O)COCCOCCNC(=O)CC[C@H](NC(=O)CC[C@H](NC(=O)CCCCCCCCCCCCCCCCC(=O)O)C(=O)O)C(=O)O)NC(=O)[C@@H](NC(=O)[C@H](CC(=O)O)NC(=O)[C@H](CC(C)C)NC(=O)[C@](C)(Cc1ccccc1)NC(=O)[C@H](CCCCN)NC(=O)[C@H](CO)NC(=O)[C@@H](NC(=O)[C@H](CC(=O)O)NC(=O)[C@H](CO)NC(=O)[C@@H](NC(=O)[C@H](Cc1ccccc1)NC(=O)[C@@H](NC(=O)CNC(=O)[C@H](CCC(N)=O)NC(=O)C(C)(C)NC(=O)[C@@H](N)Cc1c[nH]cn1)[C@@H](C)O)[C@@H](C)O)C(C)C)[C@@H](C)O)C(C)C)C(=O)N[C@@H](CC(C)C)C(=O)N[C@@H](CCC(=O)O)C(=O)NC(C)(C)C(=O)NCC(=O)O"}},
  "note": "Starred links: 1 amine or outer side, 2 acyl side, 3 side chain; linkers in the order of their positions; H or OH if unused. Non-standard residues stand in square brackets, D forms with d. Groups on a side chain read outwards from the residue. No end group written: not given here. *: point of attachment. C20 diacid = O=C(O)CCCCCCCCCCCCCCCCCCC(=O)*; C18 diacid = O=C(O)CCCCCCCCCCCCCCCCC(=O)*; γGlu = O=C(O)[C@H](CCC(=O)[*:2])N[*:1]; αMeF = C[C@](N)(Cc1ccccc1)C(=O)O; AEEA = NCCOCCOCC(=O)O; Aib = CC(C)(N)C(=O)O",
  "data": [
    {"target": "human glucagon receptor (human, UniProt P47871)", "assay": "cell-based or functional assay", "units": {"cAMP production EC50": "nM"}, "values": [
      {"binder": "B1", "cAMP production EC50": 0.178},
      {"binder": "B2", "cAMP production EC50": 0.0435},
      {"binder": "B3", "cAMP production EC50": 0.099},
      {"binder": "H[Aib]QGTFTSDVSK[αMeF]LDSK([AEEA-AEEA-γGlu-C18 diacid])RAQDFVQWLL[Aib]TE-OH (not fully specified)", "note": "[Peptide 150]", "cAMP production EC50": 0.355},
      {"binder": "B4", "cAMP production EC50": 0.568},
      {"binder": "B5", "cAMP production EC50": 0.0204},
      {"binder": "B6", "cAMP production EC50": 2.65},
      {"binder": "B7", "cAMP production EC50": 0.0773},
      {"binder": "H[Aib]QGTFTSDVSK[αMeF]LDSK([AEEA-AEEA-γGlu-C18 diacid])RARDFVRWLL[Aib]TE-OH (also: αMePhe at 23 (V))", "note": "[Peptide 166]", "cAMP production EC50": 0.27}
    ]},
    {"target": "human GLP-1 receptor (human, UniProt P43220)", "assay": "cell-based or functional assay", "units": {"cAMP production EC50": "nM"}, "values": [
      {"binder": "B1", "cAMP production EC50": 0.111},
      {"binder": "B2", "cAMP production EC50": 0.0153},
      {"binder": "B3", "cAMP production EC50": 0.0412},
      {"binder": "H[Aib]QGTFTSDVSK[αMeF]LDSK([AEEA-AEEA-γGlu-C18 diacid])RAQDFVQWLL[Aib]TE-OH (not fully specified)", "note": "[Peptide 150]", "cAMP production EC50": 0.166},
      {"binder": "B4", "cAMP production EC50": 0.0402},
      {"binder": "B5", "cAMP production EC50": 0.0119},
      {"binder": "B6", "cAMP production EC50": 0.00871},
      {"binder": "B7", "cAMP production EC50": 0.031},
      {"binder": "H[Aib]QGTFTSDVSK[αMeF]LDSK([AEEA-AEEA-γGlu-C18 diacid])RARDFVRWLL[Aib]TE-OH (also: αMePhe at 23 (V))", "note": "[Peptide 166]", "cAMP production EC50": 0.048}
    ]}
  ]
}
